From patent publication US20050100965A1 (published 2005)
Where “and” joins values, the source holds several entries; their conditions need not be identical. Identical values can stand only once.

biological target: NEM-huIL-18 (human, UniProt Q14116 37-193, cysteines treated with N-ethyl maleiamide (NEM)); test: cell-based or functional assay

| Binder | KG-1 Assays (IC50, M) |
| --- | --- |
| HuMAb 2.13.1 (antibody, V domains shown) VH: ZVQLQESGPGLVTPSQTLSLTCTVSGGSISSGGHYWTWIRQHPGKGLEWIGYIYYSGSTYYNPSLKSRLTISVDTSKNQFSLKLSSVAAADTAVYYCARDRGGSGSYWDYWGQGTLVTVSS VL: EIVLTQSPGTLSLSPGERATLSCRGSRSVSSGYLAWYQQKPGQAPRLLIYGVSIRATGIPDRFSGSGSGTDFTLTISRLEPEDFAVYYCQQYHGSPLTFGGGTKVEIKR | 2e-10 M and 1e-10 M and 7e-11 M |
| HuMAb 215 (antibody, V domains shown) VH: ZVQLQESGPGLVKPSQTLSLTCTVSGGSINSGDYYWSWIRQHPGKGLEWIGHISYRGTTYYNPSLKSRVTISVDTSKNQFSLKLSSVTAADTAVYCCARDRGGGFFDLWGRGTLVTVSS VL: EIVLTQSPGTLSLSPGERATLSCRASRSLSSGYLAWYQQKPGQAPRLLIYGASIRATGIPDRFSGSGSATDFTLTISRLEPEDFAVYYCQQYNYSPLTFGGGTRVEINR | 1e-10 M and 3e-10 M |
| HuMAb 351 (antibody, V domains shown) VH: ZVQLVESGGGVVQPGRSLRLSCAASGFTFSHYGMHWVRQAPGKGLEWVAVISYDGRNKYYVDSVKGRFTISRDNSKNTLYLQMNSLRAEDTAVFYCAREKGGSGWPPFYYYYGMDVWGQGTTVTVSS VL: DIVMTQTPLSLSVTPGQPASISCKSSQNLLYSDGETYLCWYLQKPGQPPQLLIYEVSNRFSGVPERFSGSGSGTDFTLKISRVEAEDVGIYYCMQNVQLPLTFGGGTRVEIKR | 2e-10 M |
| HuMAb 413 (antibody, V domains shown) VH: ZTQLQESGPGLVKPSETLSLTCTVSGGSISSRVYYWGWIRQPPGKGLEWIGSIYYSGSTYYSPSLKSRVTISVDTSKNQFSLKLSSVTAADTAIYYCAREDSSAWVFEHWGQGTLVTVSS VL: EIVLTQSPDTLSLSPGERATLSCRASQILSRNYLAWYQQKPGQAPRLLIYGISIRATGIPDRFSGSGSGADFTLTINRLEPEDFAVYYCQHYDNSLCSFGQGTKLEVKR | 1e-09 M and 7e-10 M |
| HuMAb 2.5.1 (antibody, V domains shown) VH: ZVQLVQSGTEVKKPGESLKISCKGSGYTVTSYWIGWVRQMPGKGLEWMGFIYPGDSETRYSPTFQGQVTISADKSFNTAFLQWSSLKASDTAMYYCARVGSGWYPYTFDIWGQGTMVTVSS VL: not shown | 3e-10 M and 4e-10 M |
| HuMAb 268 (antibody, V domains shown) VH: ZVQLVESGGGVVQPGRSLRLSCAASGFTFRNYGLHWVRQAPGKGLEWVAVIWYDGSNKYYADSVKGRFTISRDNSKNTLYLQMNSLRAEDTAVYYCARESYYYYGMDVWGQGTTVTVSS VL: EIVMTQSPATLSVSPGERATLSCRASQSFNSNLVWYQQKPGQAPRLLIYGASTRATGIPARFSGSGSGTEFTLTISSLQSEDFAVYYCQQYNNWTWTFGQGTKVEIKR | 7e-09 M |
| HuMAb 435 (antibody, V domains shown) VH: ZLQLQESGPGLVKPSETLSLTCTVSGGSIDSRIYYWGWIRQPPGKGLEWIGSIYYRGSTYYNPSLKSRVTISVDTPKNQFSLKLNSVTAADTAVYYCAREDSSAWVFDYWGQGTLATVSS VL: EIVLTQSPGTLSLSPGERATLSCRASQSVRNNYLNWYQQKPGQAPRLLIYGAFSRATGIPDRFSGSGSGTDFTLTISSLEPEDFVVYYCQQYGNSIDSFGQGTKLEINR | 8e-10 M and 7e-10 M and 4e-10 M |

biological target: T1, Biotinylated rhuIL-18 (biot-IL-18) (human, UniProt Q14116 37-193, NEM-treated cysteines; biotin on lysine residues (mixture with 1, 2, 3 or 4 biotins per huIL-18)); test: biotinylated IL-18 ELISA, hybridoma or B cell supernatant
T1 construct: also called biotinylated NEM-huIL-18; biotinylated IL-18
Source text: An ELISA was developed to screen for antibodies that bind human IL-18. […] Hybridoma or B cell supernatants were applied and IL-18-bound antibodies were detected using HRP-conjugated anti-human IgGs, following standard ELISA protocols well known in the art.

| Binder | binding result |
| --- | --- |
| HuMAb 550 (antibody, V domains shown, KG-1 IC50 printed as TBD) VH: ZVQLQESGPGLVKPSQTLSLTCTVSGGSINSGGYYWSWIRQHPGKGLEWIGHISYRGTTYSNPSLKSRVTISVDTSKNQFSLKLSSVTAADTAVYYCARDRGGGFFDLWGRGTLVTVSS VL: EIVLTQSPGTLSLSPGERATLSCRASQSVNSGYLAWYQQKPGQAPRLLIYGVSIRATDIPDRFSGSGSATDFTLTISRLEPEDFAVYYCQQYGFSPLTFGGGTRVEINR | binds |
